These results are taken from patent US20220177594A1 (ZOETIS SERVICES, published 2022).

Changes are numbered by the printed parent chain.

The target in this test is T1, ANTIBODY EXPRESSION CONTROL.
T1 construct: also called mouse anti-canine antibody (capture reagent of the expression control ELISA)
The experiment in a line: SPR Biacore, expression control. The procedure: The affinity with which candidate mAbs bind canine, feline, and human (SEQ ID NO: 122; Human_OSMR) (R&D Systems, Minneapolis, Minn.) OSMR was determined using surface plasmon resonance (SPR) on a Biacore system (Biacore Life Sciences (GE Healthcare), Uppsala, Sweden). To avoid affinity differences associated with differential surface preparation that can occur when immobilizing antibodies to surfaces; OSMR from each species was directly conjugated to individual surfaces. Immobilization was obtained by amine coupling 5 μg/mL OSMR using N-hydroxysuccinimide (NHS)/1-Ethyl-3-(3-dimethylaminopropyl) carbodiimide (EDC) chemistry. Chips were quenched with ethanolamine and the affinity with which all candidate mAbs bound to the immobilized OSMR was evaluated. All curves were fit to a 1:1 model. […] Results for affinity measurements are described herein.
Data from an ELISA represents an equilibrium state where the antibody is allowed to associate and dissociate over a one-hour period resulting in steady-state binding. Using Biacore, the target protein is immobilized to a surface and the antibody is passed over this surface in a mobile liquid phase. Protein-protein interaction is determined from changes in the surface resonance which allows for calculation of association (kₐ), disassociation (kd), and affinity constant (KD). While not wishing to be bound to one hypothesis we present data from ELISA and Biacore experiments, using the same preparation of antibody, that may result in agreement between the two methods with respect to binding but also may show contradictory results due to the nature of the binding kinetics and different assay dynamics. The data presented in Table A (in combination with experimental results from yeast display mutational analysis in Example 21) allow for the definition of a structure:function relationship to be defined between the anti-OSMR antibodies described here and their ability to bind and block IL-31 and OSM-mediated signaling through the OSMR receptor.

B1: Mu_02D09_VH (SEQ ID NO: 31)_D31A (antibody, V domains shown)
VH: EVQLVESGGGLVKPGGSLTLSCAASGFTFSAYGMHWLRQAPEKGLEWVAYISSGSRAVFFADTVKGRFTISRDNAKNTLFLQMTSLRSDDTAMYYCARDRYDGRGFAYWGQGTLVTVSA
VL: DIVLTQSPATLSVTPGDSVSLSCRASQSISNNLHWYQQTSHESPRLLITYASQSISGIPSRFSGSGSGTDFTLSINSVETEDFGMYFCQQSNSWPLTFGAGTKLELKR
As usually defined, the Kd is the concentration at which binding is half-saturated. As a reminder, the koff is the rate constant with which the complex falls apart. For orientation: kon means the rate constant with which the complex forms. As for B1, the Kd amounted to 0.0685 nM, the koff is 8.32e-05 s⁻¹ and the on-rate constant (kon) came out at 1.21e+06 M⁻¹ s⁻¹.

B2: Mu_02D09_VH (SEQ ID NO: 31)_S52A (antibody, V domains shown)
VH: B1 VH with A31D, S52A
VL: B1 VL
In the case of B2, the Kd is 0.0233 nM, the off-rate (koff) amounted to 7.55e-06 s⁻¹ and the kon worked out at 323000 M⁻¹ s⁻¹.

B3: Mu_02D09_VH (SEQ ID NO: 31)_Y50A (antibody, V domains shown)
VH: B1 VH with A31D, Y50A
VL: B1 VL
Consider B3, for which the Kd stood at 0.00259 nM, the koff amounted to 3.68e-07 s⁻¹ and the kon worked out at 142000 M⁻¹ s⁻¹.

B4: Mu_02D09_VL (SEQ ID NO: 33)_Q27A (antibody, V domains shown)
VH: B1 VH with A31D
VL: B1 VL with Q27A
Consider B4, for which the Kd came to 1.2 nM, the koff is 0.00019 s⁻¹ and the kon was 158000 M⁻¹ s⁻¹.

B5: Mu_02D09_VH (SEQ ID NO: 31)_H35A (antibody, V domains shown)
VH: B1 VH with A31D, H35A
VL: B1 VL
For B5, the Kd amounted to 0.803 nM, the koff was 0.000112 s⁻¹ and the kon amounted to 139000 M⁻¹ s⁻¹.

B6: Mu_02D09_VH (SEQ ID NO: 31)_G33A (antibody, V domains shown)
VH: B1 VH with A31D, G33A
VL: B1 VL
With B6, the Kd turned out to be 0.0225 nM, the koff is 7.35e-06 s⁻¹ and the kon was 327000 M⁻¹ s⁻¹.

B7: Mu_02D09_VL (SEQ ID NO: 33)_I29A (antibody, V domains shown)
VH: B1 VH with A31D
VL: B1 VL with I29A
In the case of B7, the Kd came out at 0.714 nM, the koff came out at 9.47e-05 s⁻¹ and the kon stood at 133000 M⁻¹ s⁻¹.

B8: Mu_02D09_VH (SEQ ID NO: 31)_Y32A (antibody, V domains shown)
VH: B1 VH with A31D, Y32A
VL: B1 VL
For B8, the Kd stood at 0.366 nM, the koff amounted to 4.43e-05 s⁻¹ and the association rate constant (kon) came to 121000 M⁻¹ s⁻¹.

B9: Mu_02D09_VH (SEQ ID NO: 31)_D62A (antibody, V domains shown)
VH: B1 VH with A31D, D62A
VL: B1 VL
B9: the Kd was 0.0019 nM, the koff was found to be 2.45e-07 s⁻¹ and the kon is 129000 M⁻¹ s⁻¹.

B10: Mu_02D09_VH (SEQ ID NO: 31)_D102A (antibody, V domains shown)
VH: B1 VH with A31D, D102A
VL: B1 VL
On to B10, for which the Kd came to 0.547 nM, the koff amounted to 7.4e-05 s⁻¹ and the kon is 135000 M⁻¹ s⁻¹.

B11: Mu_02D09_VH (SEQ ID NO: 31)_R104A (antibody, V domains shown)
VH: B1 VH with A31D, R104A
VL: B1 VL
B11: the Kd was determined as 0.229 nM, the koff was 2.41e-05 s⁻¹ and the kon was found to be 105000 M⁻¹ s⁻¹.

B12: Mu_02D09_VH (SEQ ID NO: 31)_Y101A (antibody, V domains shown)
VH: B1 VH with A31D, Y101A
VL: B1 VL
For the molecule B12, the Kd came out at 0.28 nM, the koff came out at 4.11e-05 s⁻¹ and the kon came to 147000 M⁻¹ s⁻¹.

B13: Mu_02D09_VH (SEQ ID NO: 31)_D99A (antibody, V domains shown)
VH: B1 VH with A31D, D99A
VL: B1 VL
With B13, the Kd was determined as 1.63 nM, the koff came to 0.000384 s⁻¹ and the kon worked out at 235000 M⁻¹ s⁻¹.
